Data published in article PMC4493018, “A Unique Human Norovirus Lineage with a Distinct HBGA Binding Interface” (PLoS Pathogens, 2015).

Legend:
OIF P particle = target: T1, OIF P particle (Norovirus NLV/IF1998/2003/Iraq, UniProt Q6B7R3); assay: ELISA, oligosaccharide coated on plate; assay type: binding; conditions: P particles 10 μg/ml, coated synthetic oligosaccharide 2 μg/ml (polyvalent PAA conjugate in the blocking assay), 37 °C
T1 construct: P domain self-assembled to P particles of 830 kDa; GST fusion from E. coli BL21, GST cut off with thrombin

[1] = target: T2, OIF P domain (GII.21 OIF virus P dimer) (Norovirus NLV/IF1998/2003/Iraq, UniProt Q6B7R3); assay: X-ray co-crystal structure, […] Å; conditions: co-crystallised without glycerol; 10 mM ligand; new HBGA site of B-, N- and T-loops; beta-Gal is major binding saccharide
T2 construct: P domain, residues 220-527, pGEX-6P-1 GST fusion in E. coli BL21(DE3), GST cut off with PreScission protease; dimer

[2] = target: P domain of the GII.21 OIF (Operation Iraqi Freedom) norovirus capsid protein VP1 (human norovirus GII.21 OIF virus); assay: crystal structure
[3] = target: A antigen oligosaccharide; assay: plate binding assay with coated oligosaccharides (OD450 read-out); conditions: P particles 10 μg/ml; oligosaccharides for plate coating at 2 μg/ml; parent: est. 0.04; read off a plot
Lea oligosaccharide = assay: as above; conditions: P particles 10 μg/ml; oligosaccharides for plate coating at 2 μg/ml; parent: est. 0.85; read off a plot

For `CC(=O)N[C@H]1C(O)O[C@H](CO)[C@@H](O[C@@H]2O[C@@H](C)[C@@H](O)[C@@H](O)[C@@H]2O)[C@@H]1O[C@@H]1O[C@H](CO)[C@H](O)[C@H](O)[C@H]1O` (stereo partly drawn) [Le^a trisaccharide, β-Gal-(1,3)-(α-Fuc-(1,4))- GlcNAc], the “ELISA, oligosaccharide coated on plate” value (OIF P particle) was “wild type P particle of OIF virus that binds strongly to Le^a oligosaccharide” and the “X-ray co-crystal structure, 2.00 Å” value [1] was “we co-crystallized the OIF P domain with Le^a trisaccharide”.
Work on “P domain of the GII.21 OIF (Operation Iraqi Freedom) norovirus capsid protein VP1 (domain or fragment)” yielded a stoichiometry N [2] of 2.
wild type P particle of OIF virus D294A was tested, and the response [3] was 0.07 OD450 and the response (Lea oligosaccharide) was 0.32 OD450.
Compound wild type P particle of OIF virus E358A has a response [3] of 0.08 OD450.
